Reference: paper PMC3326311 (Nucleic Acids Research, 2011)
Positions count from the first letter of the chain named. Names and notes keep the numbering of the source.

B1: NurA nuclease (Sulfolobus solfataricus), untagged (enzyme, Sulfolobus solfataricus P2)
chain: MIRKIYDKLVESHNEIKNQIYNIANYLKQEIQDKVNEYWNEYVINHEQSETCKFVAIDGGSFGRPMRIGIVYAVGAESVIGDNKGVKTLSEDGQIGIFKPGNDAQERISLLMEALELSLALRDGSKGDYILMDGSLSKKIGNKVDIQQFSDEELKLIRNVDLNGIISIKDERKMRDLLMLLNQFLVSKIIEEYDGNVLWISKVSRGRDLFGTDYPDITVLELFTEKRGFSKLIIKNIDIEKISEIPEIEVLRKMEYTTFYTRLDNGKRVIRVDIVGRVDEKIVKEIMDRLSGVSIKGYPFPLLKAHMDVRFSAMDREKIIKLVGSKLHKDIEWWPSQFY
B2: NurA F300E (enzyme, Sulfolobus solfataricus P2)
chain: B1 chain with F300E
B3: NurA I295E (enzyme, Sulfolobus solfataricus P2)
chain: B1 chain with I295E
B4: NurA K202A (enzyme, Sulfolobus solfataricus P2)
chain: B1 chain with K202A
B5: NurA I295E/F300E double mutant (enzyme, Sulfolobus solfataricus P2)
chain: B1 chain with I295E, F300E
B6: HerA helicase (Sulfolobus solfataricus), untagged (enzyme, Sulfolobus solfataricus P2, UniProt Q97WG8 1-500, looked up)
chain: MIIGYVIGQATTQEALILAERPVRLGTYVVLEYDNVKALGLITNVTRGSPMLDDNMNDIEIVQRLKQFNNSIPVYTKAKVKMLCDMNNHFLMPDIPPFAGTPAREAEDEELKSIYSQDGQIRIGSLIGKNVEVKLNINSFARHLAILAATGSGKSNTVAVLSQRISELGGSVLIFDYHGEYYDSDIKNLNRIEPKLNPLYMTPREFSTLLEIRENAIIQYRILRRAFIKVTNGIREKLKEGQIPFSTLNSQFYELMKDELETQGNSDKKSSAKDEVLNKFEEFMDRYSNVIDLTSSDIIEKVKRGKVNVVSLTQLDEDSMDAVVSHYLRRILDSRKDFKRSKNSGLKFPIIAVIEEAHVFLSKNENTLTKYWASRIAREGRKFGVGLTIVSQRPKGLDENILSQMTNKIILKIIEPTDKKYILESSDNLSEDLAEQLSSLDVGEAIIIGKIVKLPAVVKIDMFEGKLLGSDPDMIGEWKKVEESEKIAKGFADFGTEIGD

Experiments:
[1] = molecular target: the molecule itself; assay: crystal structure
[2] = molecular target: the molecule itself; assay: SEC
[3] = molecular target: B6; assay: SEC

Binder	stoichiometry N [2]	also measured
B1		stoichiometry N [1]: 2
B2	2	
B3	2	
B4		binding result [3]: binds
B5	2	
B6	6	
